Assay results as given in the domain aggregation screens of Martell et al. (2025).

Assay: soluble fraction after stress (log2 fold change); higher = more stays soluble; pooled small domains, quantitative proteomics
Conditions: stress: 50 degC
In short: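 Pooled custom libraries of small protein domains were measured in a high-throughput format, with quantitative proteomics as the read-out. Each library was stressed at 50°C. Aggregation propensity is given as the base-two logarithm of the fold change in how much of each protein stays soluble after the stress. Higher values mean a larger share of the protein remains in solution.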

| Sequence | soluble fraction (log2) |
| --- | --- |
| HMSIDNALLTLIGKTGTAQTVLRPSGKVVIGDEVYDAVTAGEFIDKGSAIVVTRVEATQLYVEASEA | 0.0555 |
| HMSIELEISADGNNYRVSGLSDGEDVRVYSVSGVQVFSGKAQGGEVVIPADNWNKGIYVISAGGSSVKVL | -0.196 |
| HMSIGLEDLIEQKGVADTDLRPSGWINVGNQRIFVVTEGSYIDQNDNVIILSVDGNRVVVRKI | -0.747 |
| HMSIGLEELVGSHGEAITDLRPAGQVSIAARRISAVSEGDFINKGDSVEVLSVEGYRVMVRKLET | 0.00441 |
| HMSIITLFQEINAAVAEATGGRVPESVVQNFILGKDVVIPEDVKEIIISKLKAFATDIEGMLEESGFD | -0.909 |
| HMSILDEAEFKKIESALLDFITNNIFTVKELLQASRGIKQDKFWKVFQFLQSERKVVVNELGYIEL | -0.205 |
| HMSILSIGLERGMKKGVAWGIAKSILDILEETGPVSEKTREMIVTETDAERLSAWVKKAARSNSEEDFLSK | -0.631 |
| HMSILSRREHEIMQWVKGGKTNIEIAQILGISARTVRNHLQNVFRKLDVINRAQAVFEVERRR | -2.15 |
| HMSIMNEQIREILNQQVTKTSKIQQLLLLGLTRRQVADLVTNGNYGFVQNVYRNMLDAGIFTP | -0.5 |
| HMSIMNLSEKIVVLRKSNGMSQEELAEKLYVSRQAVSRWEMGTAVPDSTNILQLGKLFHVTTDYLLNDEYE | -3.19 |
| HMSINQIADKGYITRLIDNNANIKDVLYYDASSRILAIEDPKYMFYLKNTDWNQFAKEMGFKLE | -0.657 |
| HMSINTLEVHSLKALENLAESPLLISFSYENEEYNYRLASSDVSLLKKISSNYSDDSDIKGLRFIS | -0.992 |
| HMSIQQEATGNRIRELLLNNGYTVKDIQEVMGFENPQAVYKWLSGKSLPNLDNLLILSKVLHTSIEDILV | -0.699 |
| HMSISSIDFENLKSDELSDAQITQIYRQAQEQGLSIDELSSLAIARGMSPTEVAKLRSRFNSIP | 0.167 |
| HMSIVVPDLRGKTLEEARAILKEADLDFEINDSTFSKTARPGTIRDVVPSPGSRVKAGRILFISINGF | -0.519 |
| HMSIYQYFNISEINSIDDLKKQYFKLAKKYHPDAGGDKVSFQELQNEYEQLTKKILSGAELNADELKTE | -0.109 |
| HMSKASLFFLFNHKDELYIVDNNHVQDVPKPRELIRRFSTIEQIREHALHLGLPIANDTARE | -0.723 |
| HMSKEGLASLLEDINGLGAIRRKTLIDHFGSVAKIRGARPEEIAALPGMGRKIAEHILASLRED | -0.251 |
| HMSKEKQILQLLQHGYSQRRIADTLSVSRNTVAKVAKAAIEHPVSSDSLDSIDELELHQKLFPEEVLI | -0.339 |
| HMSKGKNEVIAYLKAHNDHRLTVAEILDGLKEEGISINRSTIYRNLDKLVENGDILAFKGKDSESAFYQYS | 0.0754 |
| HMSKHLWNKVLPKVTTANITNLINQAIRKGEWRMDNKGVVHIIWRYRGKIIEVTGYLKDKVFNVGNAWVR | -0.122 |
| HMSKITNALLMMKLLSNGKVYSVKELSEELGVTERMVRNYKEQLEMSGYIIESFKGPGGGYFINKN | -1.61 |
| HMSKKAIVINLLKRPDGASLKDIMQATYWQAHSVRGFISGSLTKKMGLNVESFKRPDGERAYRIN | -2.3 |

| Sequence | soluble fraction (log2) |
| --- | --- |
| HMSKLIDQELINFFKNQIESKSFRYGVSIEDSYEEIKSNQIKFYGEQEDKLKAIDNAFIELKRERAGIR | -0.00405 |
| HMSKNDLAGDEADVYKLLSVETGKPISDLVNRLPFGKSKTREILNTLAEKGFVYISGSGRGTKYHR | 0.0557 |
| HMSKNTFIGNIDDKELYVGSGRYGPFMLYDGKFTNITRYLSDESKELTDITIDDYSKIVNNARPK | -0.101 |
| HMSKNVTMPNLVGYSMRQAKAELLSRGLHLGKLIYVNDIATNNVISQLYRNAEIEPGVKIESESYVDLVVG | -1.45 |
| HMSKPTLTDELLTLDLFEEIIKAKENAKGANKRFSLVGFLESKYIVDQEMLPKVNVKVTEYYNLTREN | -0.117 |
| HMSKPVVWIVGDSTVSAFTDNYYYPRYGWGTQIDKYLDGTFEVKNIALSGRSSTSYTADKEYGELIAG | 0.0416 |
| HMSKRIFPNEFQRNSPDAMVMLDKMNLSRINVDPLTKSLTLNGGGSVKTLLNGREVSAVEIAALSP | 0.0444 |
| HMSKSENLYSAARELIPGGVNSPVRAFTGVGGTPLFIEKADGAYLYDVDGKAYIDYVGSWGPMVLGHNHP | 0.0101 |
| HMSKSIEEIYDEAIRSLANEEYDSAKKLFSYLIDNFSDPEKLPLSLFWLGEIEFSSSNFDQSKIHYIE | -0.0445 |
| HMSKSIGEALKEERRSLGLTQEQFIKGIISESFYSKVERGKNEIVAVDLLKILAANNISEEEFLSKLN | -0.58 |
| HMSKSPELMEKIKEFAEGYFRENGETPSNKTIAGAMGMGRSTVYYYLVDMAQRGMISYENGVISTEKIRKL | -1.32 |
| HMSKTDYKILYSDLNREDAKQLSLLLEDKKIPYQTSEDGKTIKIPEGMVNRFRMEVATMGVNF | 0.00779 |
| HMSKTKDVLVQLMAERGLTQSDIARALSVRPQAVQQWVSGKTRPTGKNLEALAEFLQLPPAVIVHGP | -0.00766 |
| HMSKTQVKSVLDDIKGIGVVRRKALIKHFNDIEAIKAAQLAELKAVAGMDSKSAQSVYDFFHK | -0.186 |
| HMSKYERVYTGSEINVNHLKSQLEDAGISSVVRNDHESAIRAGFGSDYDRGVLLFVEKDNLLRAKHIIEKT | 0.0318 |
| HMSKYLAFTVKKNDELLPFIEKALNGISHTKAKAILANGGAMVNKNTITQYNYPLTPGMTVEISRH | 0.131 |
| HMSLDLNENEKTIFDIIQNKKTIRLSELKIEAGLSNKGWDKAMKSLTKQGLAKVVKTEDQLTVKLL | -0.0993 |
| HMSLEDNEVIQRMKVILDRFDEETAVDRTTAFKAVLDHIGKMDAESKTLEHMAEMLEALLDKVLEE | -0.237 |
| HMSLGPNAYGKPATALNILRETVMGKELFDHAFKTYSKRWMFKHPSPEDFFRTMEDASAVDLDWFWR | -0.239 |
| HMSLGSQEYSIGFRNGDSTYHYIDKALKELAYEGVIDELSTQWFGSSRAVDFPSQKDALSELGYIA | -0.0308 |
| HMSLGSSLFHARKKSGLTQEAVAEKLGVSRQTISKWETNETLPDIRQSKGLAMLYHMTLDELIE | -0.223 |
| HMSLGTDVVPDFTGKGIKEAKTEFAAYSEGELYIIGEGEKVKEQFPLPGEKVNKNSDLILYV | 0.101 |
| HMSLIDLLQLNRKSKKLTLMNLVEMTGLSYGKVYRIFNGGIDKPTPDSLKLLAKALQLDYSYLFHKAGYL | -0.161 |

| Sequence | soluble fraction (log2) |
| --- | --- |
| HMSLIEQKSQIPLVQGGQRVDKVAAALFTDFSRAELTGWIQQGALTLDGAVVKPKYKVLGGEWLYLRASQS | -2.02 |
| HMSLNIIEITAKKEINELKSFNIIYFNFDKNNSIYEYKISEREKKEILEIEKIIKNSDNVTNYEIRYSF | -0.52 |
| HMSLNQRIKEARIKMGYTQEQLGNLIGVAKTTISGYEKNREPDAATIGLIIDALKVDANFLFQ | -1.62 |
| HMSLNSELIARIENLIASIEDKRSWGYGFAESVLGQVQAGATLSPRQLEIIAKLEKENSYSVQLERQ | -0.765 |
| HMSLPALSAEEQKIVDALHGTPKGVDDIIAETGISSGALLRSLTMLELKKVIVRLPGNRIAPK | -0.128 |
| HMSLPDREVVLETSSDSYYHFKTDHFQRQITYSAVRNAPVRLVTISAERAFEVISLNRRGERPEHLE | -3.53 |
| HMSLQEISDLISQAERADQEQLKEVLKQLHQVESGNQPMSKGFLSSALSTLNKYPALITSIGQLLFKLAT | 0.00954 |
| HMSLSEGVSADVVADVQARLMELGYMDEDDPDGNFSESTRIAVEHFQQQAGLPVTGTVDKATLDALNSPD | 0.0669 |
| HMSLSQLGLTPRQTDVLALLLKGQPNKLIARELGLSVETVKDHVAAVLRALNVSSRTQAVIAVSQMLQ | -0.905 |
| HMSLSVEESYKLLDISPSAGDEEITKKFRLLALKYHPDKNRSKIEWANNIMSRLNQAYSVIMSSRFESNAE | -0.476 |
| HMSLTTKSVEETLGITRQTLHNWIKEGLLPAPKKDFRNWYIWSDEDLENLRNIIEQKTLINNKKQAV | -0.133 |
| HMSMANKKDFILDTAQKLFMEQGFDQTSISQILEATQIARGTLYYYFSSKEEIMDAIIERTIEQ | -1.05 |
| HMSMDYYNILGVNRNASTGEIKKAYKRASMQHHPDRGGNSDEFIKVQQAYDTLSDNHKRQAYDNP | 0.0774 |
| HMSMDYYSTLGVSKTASASDIKKAYRKLAMANHPDKGGDSAKFAKITEAYDVLKDPQKRNNYDQFGTA | 0.162 |
| HMSMEQAKAEEIEKLGDNAPERLQAAALFAEKFFPQDVMDAVYKITETADGVRAIEHIMQTVK | -1.28 |
| HMSMISLPNFVGKDIETVKAWAKENGITLIINKVEDSAKKDTVISQNPTNSDYSKILKGSAFTVNIAKE | 0.0206 |
| HMSMRILNHTVVKILKRYRIATDEQLQPLLDEAERSGRSLQDVVLDAKLVSETELTKLFADYAD | -0.0864 |
| HMSMVGNIEKILVTGESKKSSELLAGRTENNRVVNFTGEKVLIGSMVNVRIEEVFPNSLGGSYLPS | -0.16 |
| HMSNAIDDAVEKVISENLDLAKERGLQSMGPLMGLVMKELGGTADGKAVSEALRRKISEISD | 0.293 |
| HMSNEDAYIKLRNGFLATLSEADLLLFTLREEGKTQKEIADQLGYKTHSAVSKRLQTMRGQFEGYLKTQ | -0.68 |
| HMSNEIIFNQKSITRFLMNPENNSPMIYPLELGHEMKVIKKNNDWLNVTDEKTGLNGWVISDDFGLTKPEG | -0.212 |
| HMSNETLFEFFEKNISQLTPTLVDNINRSLAVHSKKNVKLAIMIAAKSNVRNWNYISAILNRWEKE | -2.21 |
| HMSNIAQRLVLENALAKLNQEQQTIIDLRIIKGYSVAETARLLGKTESAVRTAQYRALKELAGILEED | -0.86 |
